Test results published in the DeepSol protein solubility set.

Assay: soluble on expression in E. coli; label from the status in PepcDB or PDB records

Soluble on expression in E. coli, soluble:
MKMGENVTEYFEFAGVKNTENTLKYAIERAKLGISDIVVASSYGETAKMLFDMLEKENLNVNVVVVTYHQGFSGPDVVAMPENVKKDLEKRGATVFSGTHALSGVERGISKRFGGYGPVEVIAQTLKTLGQGVKVCYEVTVMAADAGLVSTKKEIIAIGGSSRGADSAVVIRPSNMNTFFDIELRELICMPKNKKKHEMAGDPLEHHHHHH
DEGYWDCSVCTFRNSAEAFKCMMCDVRKGTSTRKPRPVSQ
MRAAFRTLGCKVNQVETEALLGFLKALEPEVVPLEAGGADLVVINSCAVTTTAEADTRKEVRRARRYNPHAFIVVTGCYAELAPEVLKELGADAVVPNARKAELPRVILERFGLPSDPITTPPNEFWGAGERGLLNSRVRAFLKVQDGCQAGCAYCIIPRLRGKERHRDHREALAEAEALLRMGIKEIVLTGVRLGSYKGHPRGLAGLVEDLYHLGAKVRLSSIEPEDTGEDLLKVIGRYAPEVRPHLHLSLQTGSDRLLKLMGRRYDKAYYRELVQRAYDLIPGFALTTDVIAGLPTETEEEHRETLAFLEELRPTRVHAFTYTPRPKTRAASMPQVPPEVRKRRTKELIALAQRLAEERIRPRLGERVEVLVERVQGGEALGHTPDYYEARLEGEARPGETVWARVHGVEGYVLLGRVEGVKEGARGPLELPVR
MSEKPQQEEQEKPQSRRNSFAVIEFTPEVLDRCLKQVEFYFSEFNFPYDRFLRTTAEKNDGWVPISTIATFNRMKKYRPVDKVIEALRSSEILEVSADGENVKRRVPLDLTAARNARIEQNQRTLAVMNFPHEDVEASQIPELQENLEAFFKKLGEINQVRLRRDHRNKKFNGTVLVEFKTIPECEAFLKSYSNDDESNEILSYEGKKLSVLTKKQFDLQREASKSKNFSGRSRSFNGHKKKNLPKFPKNKKKNGKEESKEDSSAIADDDEEHKE
MSLDRYLGFANSNLGRRLVDALGLPRPAPLERWQAGRLRPVEGALVLGGGPLAKQVEAIAPRLTDEVYSFNADNLQAEAWVAGLGPKIKAVVFDASHLSDSDALKQLREFFQPLLRSLAPCAHVLVLGRAPEGLDDPLASVAQRALEGFSRSLAKELRNGATAQLLYVAPGAEDQLEGALRFFLSPKSAFISGQVLRLQGCTSQVEDWTRPLGGRRALVTGAARGIGAAIAETLARDGADVLLLDVPQASKDLDALAARLGGKALPLDICASDAATQLLAALPDGIDIVVHNAGITRDKTLVNMTPEYWDAVLAVNLKAPQVLTQALYDNGALGENARITLLASVSGIAGNRGQANYAASKAGLIGLAQAWAPRLAERGGSINAIAPGFIETHMTAAMPMGLREAGRRLSSLGQGGSPQDVAEAIAWLSQPGSGSVNGQVLRVCGQALMGAEGHHHHHH
MAKGTKYVSKVPDEHGFIEWSTEENLIWQELFTRQIACIKDKACDEYHEGLAKLNLPTDRIPQLDEVSKVLKVSTGWECYPVPALIGFGEFFRLLSEKKFPVATFIRSREEMDYLQEPDIFHEIFGHCPLLTNSSFANYTEAYGKMGLNATKEQRVFLARLYWFTIEFGLLDTPKGLRIYGGGVLSSPGETDYAMNNTDVDRKPFDILDVLRTPYRIDIMQPIYYMLTKVSDLDEIRKFEVDDIMELVAQAEALGLHEAKFPVKKASLEHHHHHH
MKTIAIRDVTGIMEPLPGFSVVRTDGSDGQRSIKLNGYKTTNNQYGYQFVKNENTVVYDDEEYIIKTHRERTYRKGVGVEATAIHRIFDDLRNNYIYDEKTGTLRLDAMLSFALEGSGYTFEIDTTDLPASVRVENFGWNNSLALFRDILEKFGAEFDYKGKKIYVAKKFGIQRDEPFLRYRFNVKDPEKEIDTSSFATYIRGYGKKDDKGNYLFAEYTSPLAKIYGIKHADPVKDERYTDKDSLLAAMKKQLNDNIDISLTFTAIELESMGLRDIKKGDYVWCVIEPFDLNVQLRAVSREDYSDETKSPTFTFGTITKKASDIIASFNTTKKAVDKVIDTSTGKIKDSAIDTTGLTTKSEFQSHVDNKIVHITAEERAAWNAASNSIGDLTFITWSTPTLKNGWIQYTANTESYPIQYGKDAIGTVNIRGAVSSGVVGSSTPVFTLPAGFRPPFPHLFIGVSSVATDGTPQYFRGIIKTNGDVCIENISNKDTPNQFIGIYTQFKAI
MEGLFNAIKDTVTAAINNDGAKLGTSIVSIVENGVGLLGKLFGF
MSLETQWTRMTADEAAEIIQHNDMVAFSGFTPAGSPKALPTAIARRANEQHEAKKPYQIRLLTGASISAAADDVLSDADAVSWRAPYQTSSGLRKKINQGAVSFVDLHLSEVAQMVNYGFFGDIDVAVIEASALAPDGRVWLTSGIGNAPTWLLRAKKVIIELNHYHDPRVAELADIVIPGAPPRRNSVSIFHAMDRVGTRYVQIDPKKIVAVVETNLPDAGNMLDKQNPMCQQIADNVVTFLLQEMAHGRIPPEFLPLQSGVGNINNAVMARLGENPEIPPFMMYSEVLQESVVHLLETGKISGASASSLTISADSLRKIYDNMDYFASRIVLRPQEISNNPEIIRRLGVIALNVGLEFDIYGHANSTHVAGVDLMNGIGGSGDFERNAYLSIFMAPSIAKEGKISTVVPMCSHVDHNEHSVKVIITEQGIADLRGLSPLQRARTIIDNCAHPMYRDYLHRYLENAPGGHIHHDLSHVFDLHRNLIATGSMLGEGHHHHHH
MTLEIRPAVPADAEQILAFIIELADYERARHEVVTDVEGIRRSLFAEGSPTRALMCLSEGRPIGYAVYFYSYSTWLGRNGIYLEDLYVTPEYRGVGAGRRLLRELAREAVANDCGRLEWSVLDWNQPAIDFYRSIGALPQDEWVRYRLDGEALRKMAE

Soluble on expression in E. coli, not soluble:
MSKIEIYNREEALLLIEKLNNSNIEIPILLMLTLGLRLGEATGLRWTDVDLNIGSVSVSQTLIYANNKIEFKEPKTSKSRRTLSAPDELIEKLKIEKLRQNKLKLQGILKNENNLVCLNKDYNPFLPATLRKSFHRFIKKNNLKNIRMHDLRHTNASLLLLGGTNMKVVSERLGHTDIQITMNRYSHVLEEMDKKASDNLSKILEHHHHHH
QRSHVASCSHSLSVIQFNLFYENSDINQFINYLLRHPADLVVMQELTPRVGSLLHMLDDVYPHYHGGQRDVGYPSNLMILSRHPITEVSVYRAPNGQEVIRAVWLPKGQAPITLFAAHPPSPRTSELWHQRNALVRTIETLTALYPEPEVLVVGDFNLSSVSPRFSTLFPSFQTAPVTSWPTNIKGINVPEPMMIGIDHLWLKSEQGQRIICSRESSALPQGSDHRMVTTQIGVHIP
MGSDKIHHHHHHMVKCIEEYVQVDDFKMYSKVFQGKKLQPVIIMEAGYGDYSKTWDHIAEELTEFGTVLTYDRAGLGKSGNSSKRRISSEMIKDLRSCLEKLQLKPPYIFVGHSFGGINARLFATFYSEDMLGIVLVDSTPENYKKDFLLIMSPEFQEAYYKQFVHESSYKEFMFSLGEADKHCQSMRNIPLVVLAAGKKAYYSQEAQMKWLQLQEELLRLSNNHKFIIAEQSGHYIQKDEPHYIIDAVKWIIEVGEG
MNPASPFATLTDRIDWQKVDGLVPAIVQDFQSSQVLMMGYMNPEALQKTLDTQQVTFFSRSKQRLWTKGETSGHVLQLKNIALDCDQDTLLVKVNPIGPTCHTGTVTCWDGDAQEESQMVWLHQLEQLLAERKNADPSSSYTASLYARGTKRIAQKVGEEGVEVALAATAGDKEELICESADLMYHLLVLLQEQGLAMNDVINKLKERHK
MGSDKIHHHHHHMKFFDREKEIAEILHILNREPDDVYFIYGPINSGKTALINEIINNRLDKDKYVVFYFDLREIFISKYDDFIEVLFEEYEGNKKPVEIIKSLIKDVPSLCGIPAPKNTLEEILKKKTTKNVFRYITKVLMDIKKEGKQPILIIDELQKIGDMKINGFLIYELFNYFVSLTKHKHLCHVFCLSSDSLFIERVYNEAMLDGRAKYLLVDDFDKETALKFMDFLAKENNISLTNEDKELIYNYVGGKPKDIKYVVEESNFKDLKEVLDYLLNDEISKLDMFLEILDYSKPRVEVGNEVIEINKEDIIKALRLFKDKYEIPKKDIPTPVYVYLVKENILFLNPQKRILKPQSYLVWNAIKRLL
MLFGQSVFQSVVERLKQEKEEEGTEPSPPAGHRIAGFSSGFVVDTHIEAPQPANGNLDAYLAFLADPAPPPESQTEPEPEPMPAHLEKTALADVSAELAIQETDTVATLAEKRRAFARLNHPDRVKPQFRHNATLRMTAANLLIDQALRMLRTREHFR
MGSDKIHHHHHHAIRANVMASNVDSLYSKVDTLSEQSKKNNVVREEFDYSALSFYVENFAKEYLNYNSKASDEAKKARIDRLSKYLSLDVKDVDETENLQGNVLRTFKNTSLSRIEKMEDCYLVYLNVNYELEKDKKTENVTQNMVLPIQVKDNLFSIVGRPYFVASSLPQGKTVSLKQTENSIDVDGKEKQSIEKFLKMFFTKYSVGNKQELMLLMKNPTTTAGQDSFVSIDSGDMKFFDTKQKGVTGVQVSVTFSDKTTKLTHTEDFSLWLSKTENSYFINTMKHYFTEKEGND
MGSLRLTERPHVRKARLWVKLSDGKEGWVRCDLCQRRCVIAPGKYGACGVRKNIGGELYTLVYGLLSASNIDPIEKKPLLHFYPGSTVLSISTVGCNFFCQFCQNFEISQSRLEKGLYGVYRTPEEVVRLALVYGADGITYTYNEPTIFFETVYDVAKEAKKHGLFNTMVTNGYMTPEAVDELGSLIDAATVDFKGGGDPEFYRKIMFVPDPEPIYEAILAMKDKGWWIEITNLVVPILGDKPEYVRRMARWIVENLGPEVPFHLLRFHPDYKLRHVPHTPVKTLEKLARIAMEEGLKHVYIGNVWGHPLEDTYCPKCGYKVVDREGFAIVEWRLTSDFRCPRCGYKLNFRGEYTPRNINYPMPVM
MPSWREKHEKIVQSKILVIGAGGIGCELLKNLAVTGFRKVHVIDLDTIDISNLNRQFLFRKEHVSSSKAATATQVVKQFCPQIELTFDHDSIFEKKYNMEFFQAYDIVLNALDNRAARNYVNRMCHAANRPLIDSGSGGYFGQVSVIMRGKTECYECVDKPVQQTTYPGCTIRNTPSEHIHCTVWAKHVFNQLFGEVDIDDDVSPDMDAVDPDNTEAVTTEKEKEAMKEEPAPVGTRQWAESVDYDAAKVFDKLFLHDIEYLCKMEHLWKQRKRPSPLEFHTASSTGGEPQSLCDAQRDDTSIWTLSTCAKVFSTCIQELLEQIRAEPDVKLAFDKDHAIIMSFVAACANIRAKIFGIPMKSQFDIKAMAGNIIPAIASTNAIVAGIIVTEAVRVIEGSTVICNSSIATTQSNPRGRVRFYGFFN
MKEERRRLLAKVAYLHYVQGKSQTLISKEMNIYRTTVCRMLAKAKEEGIVRIEIADYDADLFALEEYVRQQYGLEKLDLVPNQVEDTPMDTLTNVAKTAAEVFRHVVKDGDKIGLSWGATLSCLMDELNPKAMKDVFIYPLAGGPSHINAKYHVNTLVYRLARIFHGNSAFMNAMVIQEDKHLAKGILQSKYFNDILTSWDQLDLALVGIGGEPNSLEQSQWRDLLTSSDHDQLKYEKAVGEVCCRFFDQAGQPVYTGLQDRTIGISLEQLRRVPKTMAVATGKHKAKAILAALKAGFINYLVTDKETMLAVLALDEDIDLNNVLL
MFVTLEVSDRAPLEATMSTPHHPVAIIGGGLGGLTAARVLHVNGIESAVFDLESGPEARTQGGMLDIHEENGQEAIRAAGLHDEFREIIHEGGQAMRLVGPDGTVRVATEDQGDGGRPEVDRGDLRGLLLNSLPDGTVHWRHKATGARALDDGRHEVTFADGSALTTDLLIGADGAWSRIRPLLSDAEPAYTGISFVESDLHEADTRHPRSAALVGGGFFISLGDRRGFLAHRETDGSLHVYTALRADEGWIDTVDFTDHAAAKAAVLAHFDGWDEGLRSLVAHAETITPRRIHALPVGHRWKRTPGVTLLGDAAHLMSPFAGEGANLAMYDGAELALALAAHPGDTEAALTQYEEGLFPRSEASAVESAGSLDTMFGTDGLEQMIGFFGAGRAEALEHHHHHH
